{
  "source": "patent US20190315864A1",
  "target": "Mouse CTLA4-Fc protein (mouse)",
  "sequence (chain, as listed by the source limits assumed)": "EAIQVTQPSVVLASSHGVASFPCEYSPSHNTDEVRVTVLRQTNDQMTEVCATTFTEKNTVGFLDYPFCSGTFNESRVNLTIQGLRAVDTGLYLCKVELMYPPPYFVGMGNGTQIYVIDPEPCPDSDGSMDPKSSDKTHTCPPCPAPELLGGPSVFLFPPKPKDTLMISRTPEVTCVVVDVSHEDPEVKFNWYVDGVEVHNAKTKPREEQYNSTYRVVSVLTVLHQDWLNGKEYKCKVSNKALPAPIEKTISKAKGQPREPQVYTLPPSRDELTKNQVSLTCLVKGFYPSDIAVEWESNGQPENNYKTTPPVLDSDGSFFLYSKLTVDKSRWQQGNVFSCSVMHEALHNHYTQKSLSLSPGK",
  "experiment": "ELISA, control VHH coated 0.5 µg/well, mouse CTLA4-Fc (biotinylated), SA-HRP; blank 0.027",
  "data": [
    {"substance": "single domain antibody against other unrelated target (control) (VHH)", "values": [
      {"measurement": "OD (against mouse CTLA4)", "result": 0.026, "unit": "OD405"}
    ]}
  ]
}
